Protein production data for 17 sequences are collected here from a protein production outcome set (Wang et al. 2014).

This series in a line: label from the status in PepcDB records.
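Also: failed if final PepcDB status was selected cloned or expressed and not failed if soluble or beyond.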

As for “MRRQAEAYKAQLAAMVESSDDAIIVKDLNAIITSWNAGAERIFGYQASEITGSSILALIPPERHEEEKGIMSLVKSGNRVDHFETMWWGKGKKPIDVSVTTSAVKDSDGNIVGISQIARDLEHHHHHH”, the protein production result is given as “failed”.
As for “MRRQPKTRQESARMSIEAPETVVVSTWKVACDGGEGALGHPRVWLSIPHETGFVECGYCDRRYIHESFAAAKLEHHHHHH”, the entry is “not failed”; as for “MRRRVAAALVAAVLAAPALAQQPEPFEPEGYRTDNYRAPVPATLAGARVLTTAEAEAIWRDKSGAFIDVMPRAPKPKNLPEGTVWRDAPRRNIPGSLWLPDTGYGNLPPAMDDYLQRGLAQASRGDKAALLVIYCLADCWMSWNAARRALAYGYSNIAWYPDGSDGWERAALPTDEGQPEPRPDQ”, “failed”; as for “MRRSFLKTIGLGVIALFLGLLNPLSAASYPPIKNTKVGLALSSHPLASEIGQKVLEEGGNAIDAAVAIGFALAVVHPAAGNIGGGGFAVIHLANGENVALDFREKAPLKATKNMFLDKQGNVVPKLSEDGYLAAGVPGTVAGMEAMLKKYGTKKLSQLIDPAIKLAENGYAISQRQAETLKEARERFLKYSSSKKYFFKKGHLDYQEGDLFVQKDLAKTLNQIKTLGAKGFYQGQVAELIEKDMKKNGGIITKEDLASYNVKWRKPVVGSYRGYKIISMSPPSSGGTHLIQILNVMENADLSALGYGASKNIHIAAEAMRQAYADRSVYMGDADFVSVPVDKLINKAYAKKIFDTIQPDTVTPSSQIKPGMGQLHEGSNTTHYSVADRWGNAVSVTYTINASYGSAASIDGAGFLLNNEMDDFSIKPGNPNLYGLVGGDANAIEANKRPLSSMSPTIVLKNNKVFLVVGSPGGSRIITTVLQVISNVIDYNMNISEAVSAPRFHMQWLPDELRIEKFGMPADVKDNLTKMGYQIVTKPVMGDVNAIQVLPKTKGSVFYGSTDPRKEF”, “failed”.
On to “MRRSFYHYLMTLKGPAKDSETDFANEAAKDIQFPKQTEDYHELSSYLEMNADYLSNMDIFDELWEKYLENNKLEHHHHHH”, for which the protein production entry is given as “not failed”.
With “MRRSKADVERYIASVQGSAPSPREKSMKGFYFAKLYYEAKEYDLAKKYISTYINVQERDPKAHRFLGLLYEVEENIDKAVECYKRSVELNPTQKDLVLKIAELLCKNDVTDGRAKYWVERAAKLFPGSPAIYKLKEQLLDCKGEDGWNKLFDLIQSELYARPDDIHVNIRLVELYRSNKRLKDAVAHCHEADRNTALRSSLEWNLCVVQTLKEYLESLQCLDSDKSTWRATNKDLLLAYANLMLLTLSTRDVQEGRELLESFDSALQSVKSSVGGNDELSATFLETKGHFYMHVGSLLLKMGQQSDIQWRALSELAALCYLVAFQVPRPKVKLIKGEAGQNLLETMAHDRLSQSGHMLLNLSRGKQDFLKEVVESFANKSGQSALCDALFSSQSSKERSFLGNDDIGNLDGQVPDPDDLARYDTGAVRAHNGSLQHLTWLGLQWNSLSTLPAIRKWLKQLFHHLPQETSRLETNAPESICILDLEVFLLGVIYTSHLQLKEKCNSHHTSYQPLCLPLPVCRQLCTERQKTWWDAVCTLIHRKALPGTSAKLRLLVQREINSLRGQEKHGLQPALLVHWAQSLQKTGSSLNSFYDQREYIGRSVHYWRKVLPLLKMIRKKNSIPEPIDPLFKHFHSVDIQASEIGEYEEDAHITFAILDAVNGNIEDAMTAFESIKNVVSYWNLALIFHRKAEDIENDALSPEEQEECKNYLRKTRDYLIRILDDSDSNTSVVQKLWYISKQQKFGIWGWEDCTSVRV”, the protein production result is recorded as “failed”.
With “MRRTLVVPDVLLLGTLLAGLLLLSGCEGDYRPRAVGPIGEITVVMDSSHWTGPSGEALRANVTPWVETLPVSERSFQLRHLELTDERTYERVQDLKNVIIAAPLSDSTNETSFLRRRLSDEAEQAILDGQTAVVPKPNLWRRSQRIYYVAAASPDALAETFQSQGTQIRDTFTEATLQRMDRNMYEDDRRSALEDTLMQRHGFAVNMQSDFQIAVDTTTGSEGFVWLRRLLAQTRREFFVYYVEDVSPDQITPEWIYNTRDSLTRRHLRGNVRGFAKIDYRRPLKTEQRSFLDRYAYDSRGLWYMVAPLGGGNELRPVGGGGPFVNYTFYDQATDRVYMLDGSIFAPDNDKIDLLRQMEVMARTFRTAEGSRSPDASPTAAKLEHHHHHH”, the protein production result is given as “failed”.
Next, “MRSAAVLALLLCAGQVTALPVNSPMNKGDTEVMKCIVEVISDTLSKPSPMPVSQECFETLRGDERILSILRHQNLLKELQDLALQGAKERAHQQKKHSGFEDELSEVLENQSSQAELKEAVEEPSSKDVMEKREDSKEAEKSGEATDGARPQALPEPMQESKAEGNNQAPGEEEEEEEEATNTHPPASLPSQKYPGPQAEGDSEGLSQGLVDREKGLSAEPGWQAKREEEEEEEEEAEAGEEAVPEEEGPTVVLNPHPSLGYKEIRKGESRSEALAVDGAGKPGAEEAQDPEGKGEQEHSQQKEEEEEMAVVPQGLFRGGKSGELEQEEERLSKEWEDSKRWSKMDQLAKELTAEKRLEGQEEEEDNRDSSMKLSFRARAYGFRGPGPQLRRGWRPSSREDSLEAGLPLQVRGYPEEKKEEEGSANRRPEDQELESLSAIEAELEKVAHQLQALRRG”: “failed”.
On to “MRSAGEPRWVVPILASPLLWHAARFALVSAYLLGGVVKLFDFAAAVAEQERFGLHPGWLWATLAIVVELGGSLLVLADRLVWLGAGALGVLTFVAMLTANAFWSAPAADRWIQANAFFEHFGLIAGFVLLAMLSDQRRSTS”, for which the protein production result is listed as “failed”.
As for “MRSSDILIVDDEVGIRDLLSEILQDEGYSVALAENAEEARKLRHQARPAMVLLDIWMPDCDGITLLKEWAKNGQLNMPVVVMSGHASIDTAVEATKIGAIDFLEKPISLQKLLSAVENALKHGAAQIETGPVFDKLGNSAAIQEMNREVEAAAKRTSPVFLTGEAGSPFETVARYFHKNGTPWVSPARVEYLIDMPMELLQKAEGGVLYVGDIAQYSRNIQTGITFIIGKAERCRVRVIASCSYAAGSDGISCEEKLAGLFSESVVRIPPLSMQHEDIPFLIQGIACNVAESQKITPTAFSDDALAVLSRYDWPGNFEQLQNVVTTLLLEADGQEIGIGAASSALGRGVPADGTGHMACGFDFNLPLRELREEVERRYFEYHIAQEGQNMSKVAQKVGLERTHLYRKLKQLGIGVSRRAGEKTEE”, the entry is “not failed”; as for “MRSSQAIDFERIPEMEDKWRKEITAMTVTLQDKRKAIQNDEILRGVHPKSHGCLDAEFTVNRDIAPQFQVGLFAQPGKCFRARIRYSNADVLKRADLEKGQDATGARFLNHGSRGMAIKVLDVGAPVLLEDGCARNQDFLMVNTPEFAFRNVRDYLRLTKALCASADGADPLLFFLPGELLKRGMMDMSGSLLPAPAGEPPQNAGLRALFEANRAFFDDFDAEDMQGVISAAGVVGKIQSTPVRNPLFAPYFSAASFRFGKDRVMRFSVVPLQSEEMAADMASDAFEDFSDDYLSQALALSVATNEPIKLSFRIQIAHEEDIVNDIDGMIENAAKTWDEDQFSHTEVAQITINPPCPSAELVDTCKPLLFTPWHAVVDFEPLGGINRLRKPVYSTSAAFRRSVLEHHHHHH”, “failed”.
On to “MRSSQGSGADPGARGRVDQRLRRGARPAPTSPHSPAKTNHPLRAAIIGGGPGGLYTAALLKRLAPDREVTVYERNAPDDTFGFGVVLSDETLGGIEHADPTVYEALKAHFVRWDDIDIVHRHTRHTSGGHRFAALGRRRLLEILHDRCRDLGVELRFRTEAPPPDRLARTHDLVVAADGVHSATREAYRDVFRPRLTPHRCRYIWLAADFAFDAFRFEIAETEHGVMQLHGYPFAPDASTVIVEMREEVWRAAGFDELDETESTARCAKIFADALGGRPLRSNKSAWTTFRTVVNERWSHGNIVLLGDAAHTAHFSIGSGTKLAVEDALALAACLAERPTLQEALTAYEEERRPVVASTQRAAKASLEWFEDLDRYLAQPPRQFAFNLLTRSRRVTHENLRLRDAGFTESVEREFGCPPDTPPMFTPFRLRGLTLRNRVVVSPMDMYSATDGVPGDFHLVHLGARALGGAALVMTEMVCVSAEGRITPGCAGLYTGRQGEAWRRITDFVHDGAPGTAIGVQLGHSGRKGSTRLMWEGMDEPLPDGNWPLVAPSPLPYRPGGQVPRELSRAQLADVREQFRAAAERAAGAGFDLLELHCAHGYLLSGFLSPLTNHRTDAYGGSPENRLRFPLEVFDAVREVWPDERPMTVRISATDWAEGGTSAEEAVEIARAFAAHGADAIDVSTGQVVSGERPEFGRSYQTPYADRIRHEAGVPVIAVGAISSWDDVNSLVLAGRTDLCALARPHLYDPHWTLHAAAEQGYDGPGARWPAPYRAGSRPPRTGRTDAPRPRLTLHGPGQDG”, for which the protein production result is “failed”.
Consider “MRSSSSSSVLPSLPNARLRRPAVWIAFLAVAALSLTGCDLFGSNDDEGRRVTTDVVIANSGNFSAQDGSLTLYNPTASTATLKDIEVAFINSLAQHNGRLFVVDNTTSDNAGKITTFDTEQLGPVDQITNLQRSPRRIAFPEENKGYVTNLSRDLDDAPSNFVPDTSTVSVVDLEADSVTKRVDVGRSPEGIAAVARKAFVANSADGTLSVLDAGADTVNTTLSLPDCANPKSVFVDDENEVAVVCQGGGEQASEVLFLSPIEETIKDRVELGAPIGSANGSQSAYYSEGAEELYTISGSQAFGGNGTGEIFRIDTNANALDATLEIPQDDGLIGITAVGYDDVTQDLYVTRLPVGAGGFPLFSANGTALVLDRQGNEVTRFETGNSPGHITFLGDRQ”, for which the protein production result is on record as “failed”.
Consider “MRSTVAEPPVLDKIIKNVRVVRPHNDAVELLDIGIKDGKFAQIAPNITPDTGQEIFDAKNLLGFPGVVDAHMHIGIYQPLDKDAVTESKAAAMGGVTTSLNYIRTGQYYLNKGGSYRDFFPEVLALSAGNFFVDYSYHVAPIASQHIDEIPLLFEEHGVTSFKIFMFYGGYGLHGLSDQQNLFLMINKEERYDFAHFEFIMRGVTRLMAEYPEARDYISLSLHCEVAEILNAYTKIVENDSSLSGLHAYSAARPPHSEGLAISIAAYLAHETNCANINLLHLSSRKAMEAALIMQTAFPHINFRREVTVGHLLLDVDTPNGTWAKVNPPIRPRADVEYLWQAVLNHQVDWIVSDHACCSAEQKRSAKDPNNIWLAKSGFGGTEYLLSGVVSEGSKRGMSYNHMAKLLSWNPSRRFGLLTKGDIAIGYDADLVLVDPNESFVVRAAESESQQGYTPFEGMELTGRVKSTFLRGSLIYHNGQVLGSPNGRYVRRSLGG”, for which the protein production result is recorded as “failed”.
Next, “MRSWAIDLEEYLMSKALEGKSPGTVDRYRYELQRLLSYVNKAVRDITEGDISGYMRAYKAIRQVSNQTLKNVRAVYSSFFAWLRDRDRIRRNPMALVEAIKVLEHHHHHH”: “failed”; “MRSYAIGDIHGHLSLLQEIHGRIAADRARTGDDEAPVVHIGDLVDRGPDSRGVVEYLRQGIEQGENWVVLKGNHDRMFAGFLRDPAHQDPGLRGDLSWLHPRLGGGPTLESYGVAHAADRPVAIVHREAVALVPAEHVAFIEALPAVYRRDEALFVHAGIRPGVPLAEQIEDDLVWIREPFLSDPRDHGMLVVHGHTAIDAVTHYGNRLNLDSGAAYGGPLSAVVIEGRSVWQLGPEGRRPIALEHHHHHH”: “failed”; “MRTATSTSPATGTPAPVPSRTPDVTVTVIVYNDAGRLPRAVASALRQSHANIEVVISDDHSTDATEEVARELAAHDPRVVYLRLPENSGGCSAPRNRALEIARAPYLMFLDSDDELPERAVEVLLAAHRERDLDFAMGAVHRIREDGGRRTTWMPHLVAERRTLDGIEADPRLLFEHLSTSKMYARAFLDRHGLRFPEGIHYEDQLFSAQAYCLAKTFTVVPEPVYRWYIAPYADADSASISNQRHKLTNVRDRVHVQRLIDAFLAESGHEALREDKDFKFLKHDFRMYAGDLPYRDDTWLASFADLMNPYLDTLAEGAYARLPRAERVVLRLLRDRRLSDVRTAARGLGHDVAPRRVTPDEQSGRVYWGEEVPASPESRRELDLTDLDLDTRPFFTALLRHEITEITRGPGASVDLTVRTYDPALRLPVGPQRAVLHLSPGPRRLTVPFRLSPVRPGLFEGRVRLDLAAARLPLHGFAGTRHPVLRLRHRGRTHTGILLAPLAFPPLTARVPYRTGLTPHRVTLRPEGHNPGRLQITWQPVGTTAKILGPAARRLSTPRTRRAARLLSNILRLEHHHHHH”: “not failed”.
